Data as given in the supplement of paper PMC11908140.

B1: library; numbered along this chain (parent)
chain: MRKPRAAVGSGHRKQAASQEGRQKHAKNNSQAKPSACDGLARQPEEVVLQASVSSYHLFRDVAEVTAFRGSLLSWYDQEKRDLPWRRRAEDEMDLDRRAYAVWVSEVMLQQTQVATVINYYTGWMQKWPTLQDLASASLEEVNQLWAGLGYYSRGRRLQEGARKVVEELGGHMPRTAETLQQLLPGVGRYTAGAIASIAFGQATGVVDGNVARVLCRVRAIGADPSSTLVSQQLWGLAQQLVDPARPGDFNQAAMELGATVCTPQRPLCSQCPVESLCRARQRVEQEQLLASGSLSGSPDVEECAPNTGQCHLCLPPSEPWDQTLGVVNFPRKASRKPPREESSATCVLEQPGALGAQILLVQRPNSGLLAGLWEFPSVTWEPSEQLQRKALLQELQRWAGPLPATHLRHLGEVVHTFSHIKLTYQVYGLALEGQTPVTTVPPGARWLTQEEFHTAAVSTAMKKVFRVYQGQQPGTCMGSKRSQVSSPCSRKKPRMGQQVLDNFFRSHISTDAHSLNSAAQ

Variants of: B1
Test: 8OG:A repair function score (normalized; synonymous = 0, nonsense = -1) (normalized log-likelihood score); higher = more repair activity (WT-like)
Settings: with 8OG:A DNA repair reporter (GFP) in HEK-293 MUTYH KO cells
Procedure: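 Saturation mutagenesis (NNN codon scan) of the MUTYH cDNA (521-aa nuclear isoform NM_001048174.1 / NP_001041639), stably expressed under doxycycline induction in HEK-293 MUTYH knockout cells. Cells were co-transfected with an 8OG:A-bearing GFP repair reporter plus mCherry and sorted 72 h later into GFP+ and GFP− bins, three replicates per tile. The Rosace log2 enrichment (GFP+ vs GFP−) was converted per tile to a normalized function score with synonymous variants centered at 0 and nonsense variants (codons 1-471) at -1; low-abundance variants were removed.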

Compared with R495S, G326L is lower in “8OG:A repair function score” value: 0.013 for the first, -0.422 for the second.

Compared with G326S, Q181S is higher in “8OG:A repair function score” value: -0.307 for the first, -0.0472 for the second.

First: Q358W
Second: Q358M
The “8OG:A repair function score” value of the first is lower: -0.308 for the first, -0.074 for the second.

First: G353Q
Second: G353S
The “8OG:A repair function score” value of the first is lower: -0.109 for the first, -0.0386 for the second.

Compared with L432T, D61H is lower in “8OG:A repair function score” value: -0.151 for the first, -0.208 for the second.

Compared with S367Y, S367H is lower in “8OG:A repair function score” value: -0.204 for the first, -0.207 for the second.

Going from S367D to A162K, the “8OG:A repair function score” value falls from -0.0756 to -1.03.

First: A162W
Second: Q252D
The “8OG:A repair function score” value of the first is higher: -0.917 for the first, -1.01 for the second.

Compared with P244F, P244H is higher in “8OG:A repair function score” value: -0.422 for the first, -0.418 for the second.

First: T460F
Second: G148W
The “8OG:A repair function score” value of the first is higher: -0.157 for the first, -1.48 for the second.

Going from C489Y to S138I, the “8OG:A repair function score” value falls from 0.00164 to -0.286.

First: S138H
Second: S138N
The “8OG:A repair function score” value of the first is higher: 0.0365 for the first, -0.128 for the second.

Going from R283V to W399N, the “8OG:A repair function score” value falls from -0.0935 to -0.463.

Going from W399K to Q126S, the “8OG:A repair function score” value rises from -0.616 to 0.0362.

First: T424M
Second: T424W
The “8OG:A repair function score” value of the first is lower: -0.383 for the first, -0.204 for the second.

Compared with P365Q, P365E is higher in “8OG:A repair function score” value: -0.147 for the first, 0.196 for the second.

Compared with Q388N, M108C is lower in “8OG:A repair function score” value: 0.244 for the first, -0.99 for the second.

First: K464I
Second: I221F
The “8OG:A repair function score” value of the first is higher: -0.441 for the first, -0.597 for the second.

Compared with C304E, E45D is higher in “8OG:A repair function score” value: -0.556 for the first, 0.155 for the second.

Compared with V117N, V117E is higher in “8OG:A repair function score” value: -1.21 for the first, -0.683 for the second.

Compared with V117Q, A357W is higher in “8OG:A repair function score” value: -1.26 for the first, -0.104 for the second.

Going from Y56W to Y56A, the “8OG:A repair function score” value falls from 0.00662 to -0.0245.

Going from A135L to S298H, the “8OG:A repair function score” value rises from -0.28 to 0.0283.

First: A456W
Second: A456T
The “8OG:A repair function score” value of the first is lower: -0.531 for the first, -0.365 for the second.

First: R409N
Second: S227E
The “8OG:A repair function score” value of the first is higher: -0.0513 for the first, -0.452 for the second.

Going from L448D to I198V, the “8OG:A repair function score” value rises from -0.727 to -0.254.

First: A203H
Second: A203K
The “8OG:A repair function score” value of the first is lower: 0.0237 for the first, 0.0825 for the second.

First: S153G
Second: M478G
The “8OG:A repair function score” value of the first is lower: -0.237 for the first, 0.0207 for the second.

Going from M478P to L139W, the “8OG:A repair function score” value falls from -0.0126 to -0.0565.

First: V207S
Second: A520M
The “8OG:A repair function score” value of the first is lower: -0.875 for the first, 0.0283 for the second.

First: T455I
Second: V427Q
The “8OG:A repair function score” value of the first is higher: 0.0349 for the first, -1.16 for the second.

First: A405W
Second: W321T
The “8OG:A repair function score” value of the first is lower: -0.606 for the first, -0.301 for the second.

Compared with W321M, S335T is higher in “8OG:A repair function score” value: -0.218 for the first, 0.005 for the second.

First: D249C
Second: D249Y
The “8OG:A repair function score” value of the first is higher: -0.396 for the first, -0.608 for the second.

Compared with V47K, A400W is lower in “8OG:A repair function score” value: 0.00868 for the first, -0.139 for the second.

First: L83A
Second: D133M
The “8OG:A repair function score” value of the first is lower: -0.379 for the first, 0.0651 for the second.

Compared with Q498C, K463Q is lower in “8OG:A repair function score” value: -0.0114 for the first, -0.183 for the second.

First: G170H
Second: L149M
The “8OG:A repair function score” value of the first is higher: 0.094 for the first, -0.664 for the second.

Going from G39M to A63R, the “8OG:A repair function score” value falls from 0.24 to 0.00494.

Compared with R389V, R389N is lower in “8OG:A repair function score” value: 0.273 for the first, -0.415 for the second.

Going from G248T to V458N, the “8OG:A repair function score” value rises from -0.939 to -0.786.

Going from V458M to S197W, the “8OG:A repair function score” value falls from -0.204 to -1.37.

Compared with E395D, E256I is lower in “8OG:A repair function score” value: -0.291 for the first, -0.901 for the second.

Going from Y120N to C347L, the “8OG:A repair function score” value rises from -0.333 to -0.18.

Going from L95G to L95T, the “8OG:A repair function score” value falls from 0.00593 to -0.0603.

First: S231I
Second: S74W
The “8OG:A repair function score” value of the first is lower: -0.0202 for the first, -0.0127 for the second.

Compared with S74P, G222L is lower in “8OG:A repair function score” value: 0.00278 for the first, -0.623 for the second.

Going from Q43G to V348N, the “8OG:A repair function score” value falls from -0.0204 to -1.04.

Compared with F505P, V230A is lower in “8OG:A repair function score” value: 0.0167 for the first, -0.0122 for the second.

Going from V230H to E178M, the “8OG:A repair function score” value rises from -0.63 to 0.0407.

Going from H454V to S510I, the “8OG:A repair function score” value falls from -0.00673 to -0.0731.

Going from P84M to P84C, the “8OG:A repair function score” value rises from -1.8 to -0.445.

Going from S490H to S490P, the “8OG:A repair function score” value falls from -0.00447 to -0.0172.

First: S490L
Second: S490W
The “8OG:A repair function score” value of the first is higher: 0.0149 for the first, -0.0113 for the second.

Compared with A431H, G150R is lower in “8OG:A repair function score” value: 0.358 for the first, -1.3 for the second.

Going from V465S to R98V, the “8OG:A repair function score” value rises from -0.646 to -0.16.

Going from R98N to R98S, the “8OG:A repair function score” value falls from -0.122 to -0.2.

Going from R60A to R60W, the “8OG:A repair function score” value falls from -0.0135 to -0.564.

First: N366I
Second: L430G
The “8OG:A repair function score” value of the first is higher: -0.169 for the first, -0.304 for the second.

First: A137F
Second: G188D
The “8OG:A repair function score” value of the first is higher: -0.738 for the first, -1.09 for the second.

Going from G188W to G188L, the “8OG:A repair function score” value rises from -1.02 to -0.95.

First: Q473L
Second: A513R
The “8OG:A repair function score” value of the first is lower: -0.0116 for the first, 0.00911 for the second.

Going from H172D to H172Q, the “8OG:A repair function score” value rises from -0.0948 to 0.0285.

Compared with E168R, Q144H is higher in “8OG:A repair function score” value: -0.0574 for the first, -0.0216 for the second.

Going from V500M to T176P, the “8OG:A repair function score” value falls from 0.0185 to -0.429.

First: T176M
Second: T436E
The “8OG:A repair function score” value of the first is lower: -0.28 for the first, -0.16 for the second.

Going from C269L to A345D, the “8OG:A repair function score” value rises from -1.21 to -0.542.

Going from L134S to E64C, the “8OG:A repair function score” value rises from -0.514 to -0.0897.

First: C477K
Second: G368W
The “8OG:A repair function score” value of the first is higher: 0.00687 for the first, -0.913 for the second.

First: G444I
Second: R88T
The “8OG:A repair function score” value of the first is lower: -0.373 for the first, 0.00666 for the second.

Going from R88P to E451C, the “8OG:A repair function score” value falls from -0.00404 to -0.198.

Compared with L501M, A115Q is lower in “8OG:A repair function score” value: 0.0114 for the first, -0.0206 for the second.

First: A457L
Second: L237E
The “8OG:A repair function score” value of the first is higher: -0.583 for the first, -0.684 for the second.

Compared with R279C, R491L is higher in “8OG:A repair function score” value: -0.251 for the first, -0.00252 for the second.

First: S344K
Second: S344V
The “8OG:A repair function score” value of the first is higher: 0.0408 for the first, -0.00413 for the second.

Going from Q113N to W103G, the “8OG:A repair function score” value falls from -0.167 to -0.73.

Compared with W103R, W103P is higher in “8OG:A repair function score” value: -1.22 for the first, -1.09 for the second.

First: V142A
Second: G497A
The “8OG:A repair function score” value of the first is lower: -0.377 for the first, -0.0723 for the second.

Compared with P225I, A254Y is lower in “8OG:A repair function score” value: 0.0375 for the first, -0.534 for the second.

Going from A254I to A196G, the “8OG:A repair function score” value falls from 0.133 to -0.309.

Compared with A41P, A41W is lower in “8OG:A repair function score” value: 0.00904 for the first, -0.0976 for the second.

Going from Y151R to A391G, the “8OG:A repair function score” value rises from -0.389 to -0.201.

Going from S52Q to S52Y, the “8OG:A repair function score” value rises from -0.0208 to 0.0053.

For R467F, the “8OG:A repair function score” value was -0.0681.
